T1: GFP:hnRNPH1-LC1, His tag cleaved, as liquid-like droplets (human (cDNA library from HEK-293T cells), UniProt P31943 192-280)
T1 sequence: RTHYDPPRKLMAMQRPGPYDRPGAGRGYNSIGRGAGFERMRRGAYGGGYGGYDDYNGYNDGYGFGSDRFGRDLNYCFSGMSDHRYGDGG

T2: GFP-linked full-length hnRNPH1 (amino acids 2 through 449) (human (cDNA library from HEK-293T cells), UniProt P31943 2-449)
T2 sequence: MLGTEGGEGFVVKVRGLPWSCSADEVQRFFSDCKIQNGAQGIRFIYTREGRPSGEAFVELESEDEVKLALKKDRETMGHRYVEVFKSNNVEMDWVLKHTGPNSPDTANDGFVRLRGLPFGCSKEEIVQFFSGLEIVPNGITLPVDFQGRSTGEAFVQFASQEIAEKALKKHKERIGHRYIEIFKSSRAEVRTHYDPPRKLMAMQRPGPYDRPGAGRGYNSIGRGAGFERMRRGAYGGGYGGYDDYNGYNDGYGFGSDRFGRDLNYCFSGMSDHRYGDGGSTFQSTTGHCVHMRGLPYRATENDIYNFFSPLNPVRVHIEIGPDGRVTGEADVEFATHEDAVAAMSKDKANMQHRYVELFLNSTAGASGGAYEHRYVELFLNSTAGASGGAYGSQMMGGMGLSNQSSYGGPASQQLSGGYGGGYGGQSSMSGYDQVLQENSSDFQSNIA

B1: mCherry-linked LC1 domain of hnRNPH1 (amino acids 192 through 280), His tag cleaved (domain or fragment)
chain: T1 sequence
B2: mCherry-linked C-terminal half of hnRNPH1 (amino acids 192 through 449), as hydrogel droplets or polymers (domain or fragment)
chain: RTHYDPPRKLMAMQRPGPYDRPGAGRGYNSIGRGAGFERMRRGAYGGGYGGYDDYNGYNDGYGFGSDRFGRDLNYCFSGMSDHRYGDGGSTFQSTTGHCVHMRGLPYRATENDIYNFFSPLNPVRVHIEIGPDGRVTGEADVEFATHEDAVAAMSKDKANMQHRYVELFLNSTAGASGGAYEHRYVELFLNSTAGASGGAYGSQMMGGMGLSNQSSYGGPASQQLSGGYGGGYGGQSSMSGYDQVLQENSSDFQSNIA

How the values were obtained:
[1] = target: T1, GFP:hnRNPH1-LC1, His tag cleaved, as …; test: LLD incorporation assay
[2] = target: T2, GFP-linked full-length hnRNPH1 (amino …); test: hydrogel-binding assay

Binder	binding result [1]	binding result [2]
B1	binds	–
B2	–	binds
